The labels stand for the following.
B1: 31R_H2L2 (antibody, V domains shown)
VH: QVQLVQSGAEVKKPGASVKVSCKASGYTFTGYIMNWVRQAPGQGLEWMGLINPYNGGTSYNQQFQDRVTITADESTSTAYMELSSLRSEDTAVYYCARDGYDDGPYTMDYWGQGTLVTVSS
VL: DIQMTQSPSSLSASVGDRVTITCQTSEDIYSFLAWYQQKPGKAPKLLIYNAQTEAQGVPSRFSGSGSGTDFTLTISSLQPEDFATYYCQHHYESPLTFGGGTKVEIKR
B2: 31R_H3L2 (antibody, V domains shown)
VH: B1 VH with Q62D
VL: B1 VL
B3: 31R_H1L1 (antibody)
heavy: QVQLVQSGAEVKKPGASVKVSCKASGYTFTGYIMNWVRQAPGQGLEWMGLINPYNGGTSYNQKFKGRVTITADESTSTAYMELSSLRSEDTAVYYCARDGYDDGPYTMDYWGQGTLVTVSSASTKGPSVFPLAPSSKSTSESTAALGCLVKDYFPEPVTVSWNSGALTSGVHTFPAVLQSSGLYSLSSVVTVPSSNFGTQTYTCNVDHKPSNTKVDKTVERKSCVECPPCPAPPVAGPSVFLFPPKPKDTLMISRTPEVTCVVVDVSHEDPEVQFNWYVDGVEVHNAKTKPREEQFNSTFRVVSVLTVVHQDWLNGKEYKCKVSNKGLPAPIEKTISKTKGQPREPQVYTLPPSREEMTKNQVSLTCLVKGFYPSDIAVEWESNGQPENNYKTTPPMLDSDGSFFLYSKLTVDKSRWQQGNVFSCSVMHEALHNHYTQKSLSLSPGK
light: DIQMTQSPSSLSASVGDRVTITCRTSENIYSFLAWYQQKPGKAPKLLIYNAKTLAKGVPSRFSGSGSGTDFTLTISSLQPEDFATYYCQHHYESPLTFGGGTKVEIKRTVAAPSVFIFPPSDEQLKSGTASVVCLLNNFYPREAKVQWKVDNALQSGNSQESVTEQDSKDSTYSLSSTLTLSKADYEKHKVYACEVTHQGLSSPVTKSFNRGEC
notes: Anti-human IL-31 receptor antibody
B4: RDC-5 (antibody, V domains shown)
VH: QVQLQESGPGLVRPSQTLSLTCTVSGYSITSDHAWSWVRQPPGRGLEWIGYISYSGITTYNPSLKSRVTMLRDTSKNQFSLRLSSVTAADTAVYYCARVLARITAMDYWGQGSLVTVSS
VL: DIQMTQSPSSLSASVGDRVTITCRASQDISSYLNWYQQKPGKAPKLLIYYTSRLHSGVPSRFSGSGSGTDFTFTISSLQPEDIATYYCQQGNTLPYTFGQGTKVEIK
notes: also called RDC-5H/L(WT)
B5: RDC-2 (antibody, V domains shown)
VH: B4 VH with I103A
VL: B4 VL
notes: also called RDC-2H/L(WT)
B6: RDC-6 (antibody, V domains shown)
VH: B4 VH with V99I
VL: B4 VL
notes: also called RDC-6H/L(WT)
B7: RDC-4 (antibody, V domains shown)
VH: B4 VH with V99T, I103A
VL: B4 VL
notes: also called RDC-4H/L(WT)
B8: RDC-3 (antibody, V domains shown)
VH: B4 VH with V99I, I103A
VL: B4 VL
notes: also called RDC-3H/L(WT)
B9: RDC-7 (antibody, V domains shown)
VH: B4 VH with V99T
VL: B4 VL
notes: also called RDC-7H/L(WT)
B10: RDC-11 (antibody, V domains shown)
VH: B4 VH with V99S, I103T
VL: B4 VL with Q89G, T93R
notes: also called H(WT)/RDC-11L
B11: RDC-8 (antibody, V domains shown)
VH: B4 VH with V99L
VL: B4 VL
notes: also called RDC-8H/L(WT)
B12: RD-28 (antibody, V domains shown)
VH: B4 VH with V99S, I103T
VL: B4 VL with Q89G
B13: H96/PF1L-IgG1 (antibody, V domains shown)
VH: QVQLQESGPGLVKPSETLSLTCAVSGYSISDDHAWSWVRQPPGEGLEWIGYISYSGITNYNPSLKGRVTISRDNSKNTLYLQMNSLRAEDTAVYYCARVLARITAMDYWGEGTLVTVSS
VL: DIQMTQSPSSLSASVGDSVTITCQASQDISSYLNWYQQKPGKAPELLIYYGSELHSGVPSRFSGSGSGTDFTFTISSLEAEDAATYYCGQGNRLPYTFGQGTKVEIE

Changes are numbered by the printed parent chain.

The target in one test is T1, soluble human IL-31 receptor (human, UniProt Q8NI17 20-514).
T1 construct: also called soluble NR10; NR10
T1 sequence: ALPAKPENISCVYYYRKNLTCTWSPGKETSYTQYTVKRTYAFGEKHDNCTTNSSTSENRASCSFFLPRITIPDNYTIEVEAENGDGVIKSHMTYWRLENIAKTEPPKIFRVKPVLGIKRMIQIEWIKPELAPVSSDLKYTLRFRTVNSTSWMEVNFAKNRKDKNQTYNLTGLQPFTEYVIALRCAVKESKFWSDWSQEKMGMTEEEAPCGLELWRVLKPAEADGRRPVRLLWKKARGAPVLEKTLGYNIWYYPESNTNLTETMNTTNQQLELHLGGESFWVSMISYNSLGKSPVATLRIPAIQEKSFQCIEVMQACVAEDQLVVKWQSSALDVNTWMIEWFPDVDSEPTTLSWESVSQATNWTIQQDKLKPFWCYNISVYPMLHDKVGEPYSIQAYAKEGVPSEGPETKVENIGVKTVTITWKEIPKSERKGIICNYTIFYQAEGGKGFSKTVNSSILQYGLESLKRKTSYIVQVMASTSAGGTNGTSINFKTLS
As to the kind of experiment: SPR (Biacore T100), antibody captured on Protein A, soluble human IL-31 receptor as analyte. The method, then: The antigen-antibody reaction kinetics between anti-human IL-31 receptor antibody and soluble human IL-31 receptor was analyzed using Biacore T100 (GE Healthcare Biosciences). The antigen-antibody interaction was measured by immobilizing rec-Protein A (Zymed) (hereinafter “Protein A”) onto a sensor chip, capturing an antibody with the immobilized Protein A, and then reacting the antibody with the antigen as an analyte using a method known to those skilled in the art. […] In the first step of the measurement, the antibody in solution was bound to Protein A/G, and the analyte solution was allowed to interact with the antibody. After three minutes of interaction, the solution was switched to HBS-EP+, and the dissociation phase was monitored for five minutes. After measurement of the dissociation phase, the sensor chip was regenerated by washing with 10 μl of 10 mM glycine-HCl (pH 1.5). The association, dissociation, and regeneration constitute one analysis cycle. Each antibody was measured according to this cycle. The obtained sensorgrams were kinetically analyzed using the Biacore-specific data analysis software, Biacore T100 Evaluation Software (GE Healthcare Biosciences).
Background: Surface plasmon resonance follows binding to a sensor surface in real time, without labels.
B1: the Kd (in general, the concentration at which binding is half-saturated) was 3900 pM; the koff (in general, the first-order rate constant of dissociation) was 0.0016 s⁻¹; the kon (as a rule, the second-order rate constant of association) came out at 420000 M⁻¹ s⁻¹.
As for B2, binding was put at a Kd of 3600 pM, the koff turned out to be 0.0016 s⁻¹ and the kon is 440000 M⁻¹ s⁻¹.
In turn, B3 came in with a Kd of 3300 pM, a koff of 0.0012 s⁻¹ and a kon of 370000 M⁻¹ s⁻¹.

The target in the next test is T2, recombinant human IL-6R sR (R&D systems) (human, UniProt P08887 20-358).
T2 construct: Bought soluble receptor; also called rhIL-6sR; rhIL-s6R
T2 sequence (looked up): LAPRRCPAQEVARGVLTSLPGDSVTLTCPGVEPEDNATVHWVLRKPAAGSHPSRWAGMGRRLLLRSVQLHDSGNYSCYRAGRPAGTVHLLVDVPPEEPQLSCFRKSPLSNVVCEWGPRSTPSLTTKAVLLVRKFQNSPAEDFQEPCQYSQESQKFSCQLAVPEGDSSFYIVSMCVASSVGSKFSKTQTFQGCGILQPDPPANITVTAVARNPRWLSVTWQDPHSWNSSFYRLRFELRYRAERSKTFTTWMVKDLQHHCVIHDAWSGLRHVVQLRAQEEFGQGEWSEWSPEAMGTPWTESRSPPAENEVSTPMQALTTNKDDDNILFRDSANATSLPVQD
As to the kind of experiment: SPR (Biacore T100), antibody captured on Protein A, rhIL-6sR as analyte, 25 C. As for the experimental part: The antigen-antibody interaction was measured by immobilizing 4,400 to 5,000 RU of rec-Protein A (Zymed) immobilized onto a sensor chip by the amine coupling method, binding various antibodies onto the chip, and then flowing the antigen over the chip as an analyte. For the antigen, various concentrations of rhIL-6sR were used. All measurements were carried out at 25° C. The kinetic parameters, association rate constant kₐ (1/Ms) and dissociation rate constant kd (1/s) were calculated from the sensorgrams obtained by measurement. Then, KD (M) was determined based on the rate constants. The respective parameters were determined using Biacore T100 Evaluation Software (Biacore).
For B4, the dissociation constant Kd is 22 pM, the koff was found to be 2.8e-05 s⁻¹ and the kon is 1.2e+06 M⁻¹ s⁻¹.
As for B5, the Kd came to 22 pM, the koff was 2.5e-05 s⁻¹ and the kon stood at 1.1e+06 M⁻¹ s⁻¹.
With B6, the Kd was 29 pM, the koff was 3.5e-05 s⁻¹ and the kon came to 1.2e+06 M⁻¹ s⁻¹.
With B7, the Kd is 27 pM, the dissociation rate constant (koff) was 2.9e-05 s⁻¹ and the kon is 1.1e+06 M⁻¹ s⁻¹.
B8: the Kd was found to be 37 pM, the koff amounted to 3.7e-05 s⁻¹ and the kon is 1e+06 M⁻¹ s⁻¹.
B9: the Kd was 38 pM, the koff was determined as 4.2e-05 s⁻¹ and the kon worked out at 1.1e+06 M⁻¹ s⁻¹.
For B10, the Kd was found to be 65 pM, the koff was determined as 7e-05 s⁻¹ and the kon is 1.1e+06 M⁻¹ s⁻¹.
Taken in the same sequence, the figures for B11 were 25 pM, 3.6e-05 s⁻¹ and 1.4e+06 M⁻¹ s⁻¹.
Taken in the same sequence, the figures for B12 were 120 pM, 0.00011 s⁻¹ and 940000 M⁻¹ s⁻¹.

For another test, the target named is T3, SR344 (N-terminal 1st to 344th amino acids of soluble human IL-6R) (human, UniProt P08887 20-344, limits assumed).
T3 construct: also called recombinant soluble IL-6 receptor; soluble human IL-6 receptor
T3 sequence (looked up): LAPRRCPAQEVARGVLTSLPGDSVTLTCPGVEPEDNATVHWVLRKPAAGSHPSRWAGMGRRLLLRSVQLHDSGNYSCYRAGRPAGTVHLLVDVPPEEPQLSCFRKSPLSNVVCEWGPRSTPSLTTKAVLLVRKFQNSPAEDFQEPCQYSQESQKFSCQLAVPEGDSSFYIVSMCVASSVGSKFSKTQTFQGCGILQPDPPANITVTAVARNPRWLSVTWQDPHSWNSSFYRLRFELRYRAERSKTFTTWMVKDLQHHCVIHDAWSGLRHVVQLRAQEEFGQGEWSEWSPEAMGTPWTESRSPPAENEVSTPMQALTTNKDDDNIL
As to the kind of experiment: SPR (Biacore T100), Protein A/G capture, SR344 at 0, 0.36 and 1.4 µg/ml, 15 min dissociation, 37 C. The method, then: This measurement was carried out under the same conditions described in Example 2. The running buffer used was HBS-EP+, and the flow rate was 20 μl/min. Each antibody was prepared so that about 100 RU of the antibody was bound to Protein A/G. SR344 was prepared at 0, 0.065, 0.131, and 0.261 μg/ml using HBS-EP+ and used as an analyte. In the first step of the measurement, the antibody in solution was bound to Protein A/G, and the analyte solution was allowed to interact therewith. After three minutes of interaction, the solution was switched to HBS-EP+, and the dissociation phase was monitored for 10 or 15 minutes. After measurement of the dissociation phase, the sensor chip was regenerated by washing with 10 μl of 10 mM glycine-HCl (pH 1.5). The association, dissociation, and regeneration constitute one analysis cycle. Each antibody was measured according to this cycle.
The Tm of purified H96/PF1L-IgG1 was determined by the method described in Example 5. The affinity measurement was carried out under essentially the same conditions used in Example 5. Note that the concentration of SR344 was adjusted to 0, 0.36, and 1.4 μg/ml, and the dissociation phase was monitored for 15 minutes.
B13 returned a Kd of 39 pM, an off-rate (koff) of 4.8e-05 s⁻¹ and a kon of 1.2e+06 M⁻¹ s⁻¹.
